Test results: patent publication US20180201910

T1: ferredoxin encoded by FD gene 1 (Fd5), YP_001864105, Nostoc punctiforme PCC 73102
T1 chain: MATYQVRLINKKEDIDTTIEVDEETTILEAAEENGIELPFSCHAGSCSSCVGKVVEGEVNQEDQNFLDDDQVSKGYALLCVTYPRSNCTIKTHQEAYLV

T2: ferredoxin encoded by FD gene 3 (Fd7), YP_001865513, Nostoc punctiforme PCC 73102
T2 chain: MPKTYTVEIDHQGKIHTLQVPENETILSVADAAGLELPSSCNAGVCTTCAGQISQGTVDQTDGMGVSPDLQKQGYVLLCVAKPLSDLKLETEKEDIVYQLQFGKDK

T3: ferredoxin encoded by FD gene 2 (Fd6), YP_001864826, Nostoc punctiforme PCC 73102
T3 chain: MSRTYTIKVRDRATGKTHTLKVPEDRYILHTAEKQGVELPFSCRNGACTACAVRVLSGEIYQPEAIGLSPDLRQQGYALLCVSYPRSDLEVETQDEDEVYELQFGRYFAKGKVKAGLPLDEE

T4: ferredoxin encoded by FD gene 5 (Fd4), YP_001864061, Nostoc punctiforme PCC 73102
T4 chain: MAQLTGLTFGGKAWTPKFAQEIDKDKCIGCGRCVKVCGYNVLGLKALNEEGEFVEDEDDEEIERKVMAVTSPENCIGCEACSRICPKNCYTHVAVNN


Legend:
[1] = biological target: T1, ferredoxin encoded by FD gene 1 (Fd5), …
[2] = biological target: T2, ferredoxin encoded by FD gene 3 (Fd7), …
[3] = biological target: T3, ferredoxin encoded by FD gene 2 (Fd6), …
[4] = biological target: ferredoxin encoded by FD gene 4 (Fd8), YP_001867060, Nostoc punctiforme PCC 73102
Chain of ferredoxin encoded by FD gene 4 (Fd8), YP_001867060, Nostoc punctiforme PCC 73102 (chain, as listed by the source): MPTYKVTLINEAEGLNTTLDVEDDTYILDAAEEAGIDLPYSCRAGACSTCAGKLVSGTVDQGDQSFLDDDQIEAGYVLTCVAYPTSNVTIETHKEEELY

[5] = biological target: T4, ferredoxin encoded by FD gene 5 (Fd4), …

Protein | amount of alkane production 3 days after the initiation of culture compared with the amount of Strain No. 2 (E. coli Rosetta co-expressing decarbonylase and acyl-ACP reductase, GC/MS) [1] | amount of alkane production 3 days after the initiation of culture compared with the amount of Strain No. 2 (E. coli Rosetta co-expressing decarbonylase and acyl-ACP reductase, GC/MS) [2] | amount of alkane production 3 days after the initiation of culture compared with the amount of Strain No. 2 (E. coli Rosetta co-expressing decarbonylase and acyl-ACP reductase, GC/MS) [3] [times] | amount of alkane production 3 days after the initiation of culture compared with the amount of Strain No. 2 (E. coli Rosetta co-expressing decarbonylase and acyl-ACP reductase, GC/MS) [4] | amount of alkane production 3 days after the initiation of culture compared with the amount of Strain No. 2 (E. coli Rosetta co-expressing decarbonylase and acyl-ACP reductase, GC/MS) [5] | effects of improving the alkane productivity in the E. coli JM109 strain [2] | effects of improving the alkane productivity in the Klebsiella sp. 100048 strain [2]
ferredoxin reductase encoded by FDR gene 1 (FDR1), YP_001865390, Nostoc punctiforme PCC 73102 (protein) MNSPVYQTVIVGGGFTGLFTALHLAHEHYPRSVILIDKDERFCFKPLLYEYFDGEMDTFQVVPRFSELLKGSGVIFVQDTVQSINLHQREVKLASGNSYNYSNLVLALGSVTGYHQVEGARENAFPFWTQADAIALDRHLRDCLQKAVQTEDVEQRRKLLTVVIVGGGASGVEMAATLADFLPHWYSALGGNSSEIRVVLLNHGKEILDGDINNPLREIAERELNKRAVPIEMIVEAEATAIGSTSIQYKRNEQIETLATHTTVWTAGTSTHPLIKDLPIPKEHRDRRDRPLVTPNLQLLDFPEVFVGGDCAAVQDNSLPPTAQVAYQQGANIAQNLKALALGEEPKPAKVNIRGTLLKLGINDAAANLFNVFEVVGETAHLIRQGTYLTLLPAPIHDFKATTEWVDEEVFHQHLDPHDVGKKVVQAAEIVGVGVVGILAARKLLKMLGDEDKNSK | 2.5 times | x | 2.4 | 2.6 times | x |  | 
ferredoxin reductase encoded by FDR gene 2 (FDR2), YP_001866231, Nostoc punctiforme PCC 73102 (protein) MYNQGAVEGAANIELGSRIFVYEVVGLRQGEETDQTNYPIRKSGSVFIRVPYNRMNQEMRRITRLGGTIVSIQPITALEPVNGKASFGNATSVVSELAKSGETANSEGNGKATPVNAHSAEEQNKDKKGNTMTQAKAKKDHGDVPVNTYRPNAPFIGKVISNEPLVKEGGIGIVQHLKFDLSGGDLKYIEGQSIGIIPPGLDKNGKPEKLRLYSIASTRHGDDVDDKTVSLCVRQLEYKHPETGETVYGVCSTHLCFLKPGEEVKITGPVGKEMLLPNDPDANVIMMATGTGIAPMRAYLWRQFKDAERAANPEYQFKGFSWLIFGVPTTPNLLYKEELEEIQQKYPENFRLTAAISREQKNPQGGRMYIQDRVAEHADELWQLIKNEKTHTYICGLRGMEEGIDAALTAAAAKEGVTWSDYQKQLKKAGRWHVETY | 1.9 times | 3.8 times | 2.5 | 3.0 times | x | two times greater in the E. coli JM109 strain | 4 times greater than the effects in the Klebsiella sp. 100048 strain
ferredoxin reductase encoded by FDR gene 3 (FDR3), YP_001868825, Nostoc punctiforme PCC 73102 (protein) MSFTSMPSLREQQHPLIRQLADCIEAAWHQHLDLSPYHLPDELGYVEGRLEGEKLTIENRCYQTPQFRKMHLELANIGNMLDILHCVMFPRPQYNLPMFGCDLVGGRGQISAAIADLSPIQLERTLPESYTTALAQLPVLNFSQPRELPEWGNIFSDFCIFVRPGSPEEEAMFLSRVREFLDIHCMQAIASHPVSVEQVTQNLAGQHNYCTKQQQNDKTRRVLEKAFGPVWAENYMTTVLFDLPT | x | 2.0 times | 3.4 | x | x |  | 
